From patent US12533321B2, “Polypeptide formulations for oral delivery” (Bhami's Research Laboratory, Pvt. Ltd., priority 2022, dated 2026)

What was measured:
[1] = Pharmacokinetics of hGH in albumin crystal sugar truffle shell vs IV, plasma hGH by ELISA; format: in vivo, Minipigs; conditions: 0.33 mg; for Mean hGH levels: plasma, Pigs
From the text: The microparticle of albumin crystals containing hGH was then lyophilized after washing with cold isopropanol.
(§1) Pigs in the oral treatment group was either fasted overnight or fed prior to the test sample administration. […] The time of dosage of each animal was noted. […] An antibody, anti-hGH was pre-coated onto a 96-well plate. […] The intensity of the yellow color is proportional to the hGH amount bound on the plate.

[2] = Pharmacokinetics of hGH in albumin crystal capsule (Vitamin E) vs IV, plasma hGH by ELISA; format: in vivo, Minipigs
From the text: The microparticle of albumin crystals containing hGH was then lyophilized after washing with cold isopropanol. […] The capsule was then closed.
as §1

Q: For “hGH: human growth hormone (human recombinant), given IV”, which “AUC 0-inf_obs” value ([1]; Minipigs) is on record?
A: Its value is 160.057765 ng·h/mL.

Q: What about the “AUC 0-inf_pred” value ([1]; Minipigs) of the same substance?
A: The value was 158.135382 ng·h/mL.

Q: What about the “AUC t-inf_obs” value ([1]; Minipigs) of the same substance?
A: Its value is 5.998634 ng·h/mL.

Q: And the “AUC t-inf_pred” value ([1]; Minipigs)?
A: Its value is 4.076251 ng·h/mL.

Q: And the “AUC(0-t)” value ([1]; Minipigs)?
A: Its value is 154.059131 ng·h/mL.

Q: And the “AUMC 0-inf_obs” value ([1]; Minipigs)?
A: The value was 1696005.242 pg/ml * h^2.

Q: What about the “AUMC 0-inf_pred” value ([1]; Minipigs) of the same substance?
A: Its value is 1578826.575 pg/ml * h^2.

Q: And the “AUMC 0-t” value ([1]; Minipigs)?
A: The value was 1330359.118 pg/ml * h^2.

Q: And the “AUMC 0-t/0-inf_obs” value ([1]; Minipigs)?
A: The value was 0.784.

Q: What about the “AUMC 0-t/0-inf_pred” value ([1]; Minipigs) of the same substance?
A: Its value is 0.843.

Q: What about the “AUMC t-inf_obs” value ([1]; Minipigs) of the same substance?
A: The value was 365646.123 pg/ml * h^2.

Q: And the “AUMC t-inf_pred” value ([1]; Minipigs)?
A: Its value is 248467.457 pg/ml * h^2.

Q: And the C0 ([1]; Minipigs)?
A: Its C0 is 18.14454 ng/mL.

Q: And the Cl_obs ([1]; Minipigs)?
A: The Cl_obs was 0.000 (mg)/(pg/ml)/h.

Q: What about the Clast_obs ([1]; Minipigs) of the same substance?
A: Its Clast_obs is 0.46304 ng/mL.

Q: And the Clast_pred ([1]; Minipigs)?
A: The Clast_pred was 0.31465 ng/mL.

Q: And the Cmax ([1]; Minipigs)?
A: Its Cmax is 22.5132 ng/mL.

Q: And the Lambda_z ([1]; Minipigs)?
A: The Lambda_z was 0.077 h⁻¹.

Q: And the “MRT 0-inf_obs” value ([1]; Minipigs)?
A: The value was 10.596 h.

Q: And the “MRT 0-inf_pred” value ([1]; Minipigs)?
A: Its value is 9.984 h.

Q: What about the “MRT 0-t” value ([1]; Minipigs) of the same substance?
A: The value was 8.635 h.

Q: And the Tlast ([1]; Minipigs)?
A: The Tlast was 48.000 h.

Q: What about the Tmax ([1]; Minipigs) of the same substance?
A: Its Tmax is 0.500 h.

Q: And the Vss_obs ([1]; Minipigs)?
A: Its Vss_obs is 0.000 (mg)/(pg/ml).

Q: What about the Vz_obs ([1]; Minipigs) of the same substance?
A: Its Vz_obs is 0.000 (mg)/(pg/ml).

Q: What about the t½ ([1]; Minipigs) of the same substance?
A: The t½ was 8.980 h.

Q: What about the “Mean hGH levels” value ([1]; 0 hrs) of the same substance?
A: The value was 18144.54 ± 1619.64 pg/mL.

Q: What about the “Mean hGH levels” value ([1]; 0.08 hrs) of the same substance?
A: Its value is 20014.87 ± 620.32 pg/mL.

Q: And the “Mean hGH levels” value ([1]; 0.5 hrs)?
A: The value was 22513.2 ± 562.85 pg/mL.

Q: And the “Mean hGH levels” value ([1]; 1 hrs)?
A: Its value is 22130.7 ± 728.54 pg/mL.

Q: And the “Mean hGH levels” value ([1]; 4 hrs)?
A: Its value is 14910.13 ± 2908.87 pg/mL.

Q: And the “Mean hGH levels” value ([1]; 8 hrs)?
A: Its value is 1159.19 ± 226.15 pg/mL.

Q: What about the “Mean hGH levels” value ([1]; 24 hrs) of the same substance?
A: Its value is 1495.55 ± 291.77 pg/mL.

Q: And the “Mean hGH levels” value ([1]; 48 hrs)?
A: The value was 463.04 ± 90.34 pg/mL.

Q: And the “Mean hGH levels” value ([2]; 0 h)?
A: Its value is 18144.54 ± 1619.64 pg/mL.

Q: And the “AUC 0-inf_obs” value ([2]; 0.33 mg, Minipigs)?
A: Its value is 160.057765 ng·h/mL.

Q: What about the “AUC 0-inf_pred” value ([2]; 0.33 mg, Minipigs) of the same substance?
A: The value was 158.135382 ng·h/mL.

Q: What about the “AUC t-inf_obs” value ([2]; 0.33 mg, Minipigs) of the same substance?
A: The value was 5.998634 ng·h/mL.

Q: And the “AUC t-inf_pred” value ([2]; 0.33 mg, Minipigs)?
A: The value was 4.076251 ng·h/mL.

Q: And the “AUC(0-t)” value ([2]; 0.33 mg, Minipigs)?
A: Its value is 154.059131 ng·h/mL.

Q: And the “AUMC 0-inf_obs” value ([2]; 0.33 mg, Minipigs)?
A: The value was 1696005.242 pg/ml * h^2.

Q: And the “AUMC 0-inf_pred” value ([2]; 0.33 mg, Minipigs)?
A: Its value is 1578826.575 pg/ml * h^2.

Q: And the “AUMC 0-t” value ([2]; 0.33 mg, Minipigs)?
A: The value was 1330359.118 pg/ml * h^2.

Q: And the “AUMC 0-t/0-inf_obs” value ([2]; 0.33 mg, Minipigs)?
A: Its value is 0.784.

Q: And the “AUMC 0-t/0-inf_pred” value ([2]; 0.33 mg, Minipigs)?
A: Its value is 0.843.

Q: And the “AUMC t-inf_obs” value ([2]; 0.33 mg, Minipigs)?
A: Its value is 365646.123 pg/ml * h^2.

Q: And the “AUMC t-inf_pred” value ([2]; 0.33 mg, Minipigs)?
A: The value was 248467.457 pg/ml * h^2.

Q: And the C0 ([2]; 0.33 mg, Minipigs)?
A: Its C0 is 18.14454 ng/mL.

Q: What about the Cl_obs ([2]; 0.33 mg, Minipigs) of the same substance?
A: The Cl_obs was 0.000 (mg)/(pg/ml)/h.

Q: And the Clast_obs ([2]; 0.33 mg, Minipigs)?
A: The Clast_obs was 0.46304 ng/mL.

Q: And the Clast_pred ([2]; 0.33 mg, Minipigs)?
A: Its Clast_pred is 0.31465 ng/mL.

Q: And the Cmax ([2]; 0.33 mg, Minipigs)?
A: The Cmax was 22.5132 ng/mL.

Q: And the Lambda_z ([2]; 0.33 mg, Minipigs)?
A: Its Lambda_z is 0.077 h⁻¹.

Q: What about the “MRT 0-inf_obs” value ([2]; 0.33 mg, Minipigs) of the same substance?
A: Its value is 10.596 h.

Q: And the “MRT 0-inf_pred” value ([2]; 0.33 mg, Minipigs)?
A: Its value is 9.984 h.

Q: What about the “MRT 0-t” value ([2]; 0.33 mg, Minipigs) of the same substance?
A: The value was 8.635 h.

Q: What about the Tlast ([2]; 0.33 mg, Minipigs) of the same substance?
A: Its Tlast is 48.000 h.

Q: What about the Tmax ([2]; 0.33 mg, Minipigs) of the same substance?
A: Its Tmax is 0.500 h.

Q: And the Vss_obs ([2]; 0.33 mg, Minipigs)?
A: Its Vss_obs is 0.000 (mg)/(pg/ml).

Q: And the Vz_obs ([2]; 0.33 mg, Minipigs)?
A: The Vz_obs was 0.000 (mg)/(pg/ml).

Q: What about the t½ ([2]; 0.33 mg, Minipigs) of the same substance?
A: The t½ was 8.980 h.

Q: And the “Mean hGH levels” value ([2]; 0.08 h)?
A: The value was 20014.87 ± 620.32 pg/mL.

Q: And the “Mean hGH levels” value ([2]; 0.5 h)?
A: The value was 22513.2 ± 562.85 pg/mL.

Q: What about the “Mean hGH levels” value ([2]; 1 h) of the same substance?
A: Its value is 22130.7 ± 728.54 pg/mL.

Q: And the “Mean hGH levels” value ([2]; 4 h)?
A: The value was 14910.13 ± 2908.87 pg/mL.

Q: And the “Mean hGH levels” value ([2]; 8 h)?
A: Its value is 1159.19 ± 226.15 pg/mL.

Q: What about the “Mean hGH levels” value ([2]; 24 h) of the same substance?
A: Its value is 1495.55 ± 291.77 pg/mL.

Q: What about the “Mean hGH levels” value ([2]; 48 h) of the same substance?
A: Its value is 463.04 ± 90.34 pg/mL.
